Source: publication PMC9535758 (EMBO Reports, 2022)

Biological target: T1, Human recombinant His-tagged PALB2 (human, UniProt Q86YC2 1-1186)
T1 sequence: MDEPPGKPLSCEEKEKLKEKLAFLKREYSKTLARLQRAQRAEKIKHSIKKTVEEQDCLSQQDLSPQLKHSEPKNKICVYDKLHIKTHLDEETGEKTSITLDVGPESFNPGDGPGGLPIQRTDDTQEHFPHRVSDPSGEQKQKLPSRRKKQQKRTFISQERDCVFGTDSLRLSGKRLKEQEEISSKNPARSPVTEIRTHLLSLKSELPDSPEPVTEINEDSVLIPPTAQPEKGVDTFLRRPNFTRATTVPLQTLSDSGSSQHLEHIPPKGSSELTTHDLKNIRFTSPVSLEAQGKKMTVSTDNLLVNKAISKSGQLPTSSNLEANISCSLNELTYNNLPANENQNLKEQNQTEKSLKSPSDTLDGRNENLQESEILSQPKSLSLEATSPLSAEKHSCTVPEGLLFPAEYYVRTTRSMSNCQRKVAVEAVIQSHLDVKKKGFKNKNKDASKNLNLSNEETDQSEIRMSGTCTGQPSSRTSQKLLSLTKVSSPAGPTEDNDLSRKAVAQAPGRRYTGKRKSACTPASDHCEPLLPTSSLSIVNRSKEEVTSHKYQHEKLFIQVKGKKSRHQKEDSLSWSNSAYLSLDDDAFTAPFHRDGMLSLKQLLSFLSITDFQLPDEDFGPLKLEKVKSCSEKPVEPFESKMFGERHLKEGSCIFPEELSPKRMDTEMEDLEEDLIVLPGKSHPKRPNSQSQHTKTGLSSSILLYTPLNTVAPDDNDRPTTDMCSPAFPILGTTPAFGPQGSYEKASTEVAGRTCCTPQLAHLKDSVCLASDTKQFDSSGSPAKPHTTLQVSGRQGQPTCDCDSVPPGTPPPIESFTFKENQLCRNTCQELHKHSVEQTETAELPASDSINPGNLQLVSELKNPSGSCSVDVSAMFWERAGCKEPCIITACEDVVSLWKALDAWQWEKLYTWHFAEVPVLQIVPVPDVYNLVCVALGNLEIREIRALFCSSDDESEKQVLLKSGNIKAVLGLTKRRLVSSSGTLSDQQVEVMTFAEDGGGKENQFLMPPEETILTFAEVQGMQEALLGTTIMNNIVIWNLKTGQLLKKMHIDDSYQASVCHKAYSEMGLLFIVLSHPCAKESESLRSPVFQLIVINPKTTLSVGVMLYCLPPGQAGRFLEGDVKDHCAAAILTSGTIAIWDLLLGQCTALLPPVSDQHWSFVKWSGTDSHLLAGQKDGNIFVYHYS
Assay: pull-down

binding result: binds
B1: BRCA2_(1-40)HA-His (domain or fragment)
chain: MPIGSKERPTFFEIFKTRCNKADLGPISLNWFEELSSEAP
